# Data published in the PETadex activity labels (doi:10.1021/bi00096a018).
# Substrate: Acetylcholine
# Conditions: pH 7; 22 °C
Protein,Km [µM],kcat [s⁻¹]
unnamed (protein) MRPPWYPLHTPSLAFPLLFLLLSLLGGGARAEGREDPQLLVRVRGGQLRGIRLKAPGGPVSAFLGIPFAEPPVGSRRFMPPEPKRPWSGVLDATTFQNVCYQNVDTLYPGFEGTEMWNPNRELSEDCLYLNVWTPYPRPASPTPVLIWIYGGGFYSGAASLDVYDGRFLAQVEGAVLVSMNYRVGTFGFLALPGSREAPGNVGLLDQRLALQWVQENIAAFGGDPMSVTLFGESAGAASVGMHILSLPSRSLFHRAVLQSGTPNGPWATVSAGEARRRATLLARLVGCPPGGAGGNDTELIACLRTRPAQDLVDHEWHVLPQESIFRFSFVPVVDGDFLSDTPEALINTGDFQDLQVLVGVVKDEGSYFLVYGVPGFSKDNESLISRAQFLAGVRIGVPQASDLAAEAVVLHYTDWLHPEDPTHLRDAMSAVVGDHNVVCPVAQLAGRLAAQGARVYAYIFEHRASTLTWPLWMGVPHGYEIEFIFGLPLDPSLNYTTEERIFAQRLMKYWTNFARTGDPNDPRDSKSPQWPPYTTAAQQYVSLNLKPLEVRRGLRAQTCAFWNRFLPKLLSATDTLDEAERQWKAEFHRWSSYMVHWKNQFDHYSKQERCSDL,110,2170
unnamed (protein) MRPPWYPLHTPSLAFPLLFLLLSLLGGGARAEGREDPQLLVRVRGGQLRGIRLKAPGGPVSAFLGIPFAEPPVGSRRFMPPEPKRPWSGVLDATTFQNVCYQNVDTLYPGFEGTEMWNPNRELSEDCLYLNVWTPYPRPASPTPVLIWIYGGGFYSGAASLDVYDGRFLAQVEGAVLVSMNYRVGTFGFLALPGSREAPGNVGLLDQRLALQWVQENIAAFGGDPMSVTLFGESAGAASVGMHILSLPSRSLFHRAVLQSGTPNGPWATVSAGEARRRATLLARLVGCPPGGAGGNDTELIACLRTRPAQDLVDHERHVLPQESIFRFSFVPVVDGDFLSDTPEALINTGDFQDLQVLVGVVKDEGSYFLVYGVPGFSKDNESLISRAQFLAGVRIGVPQASDLAAEAVVLHYTDWLHPEDPTHLRDAMSAVVGDHNVVCPVAQLAGRLAAQGARVYAYIFEHRASTLTWPLWMGVPHGYEIEFIFGLPLDPSLNYTTEERIFAQRLMKYWTNFARTGDPNDPRDSKSPQWPPYTTAAQQYVSLNLKPLEVRRGLRAQTCAFWNRFLPKLLSATDTLDEAERQWKAEFHRWSSYMVHWKNQFDHYSKQERCSDL,670,3170
unnamed (protein) MRPPWYPLHTPSLAFPLLFLLLSLLGGGARAEGREDPQLLVRVRGGQLRGIRLKAPGGPVSAFLGIPFAEPPVGSRRFMPPEPKRPWSGVLDATTFQNVCYQNVDTLYPGFEGTEMWNPNRELSEDCLYLNVWTPYPRPASPTPVLIWIYGGGFQSGAASLDVYDGRFLAQVEGAVLVSMNYRVGTFGFLALPGSREAPGNVGLLDQRLALQWVQENIAAFGGDPMSVTLFGESAGAASVGMHILSLPSRSLFHRAVLQSGTPNGPWATVSAGEARRRATLLARLVGCPPGGAGGNDTELIACLRTRPAQDLVDHEWHVLPQESIFRFSFVPVVDGDFLSDTPEALINTGDFQDLQVLVGVVKDEGSYFLVYGVPGFSKDNESLISRAQFLAGVRIGVPQASDLAAEAVVLHYTDWLHPEDPTHLRDAMSAVVGDHNVVCPVAQLAGRLAAQGARVYAYIFEHRASTLTWPLWMGVPHGYEIEFIFGLPLDPSLNYTTEERIFAQRLMKYWTNFARTGDPNDPRDSKSPQWPPYTTAAQQYVSLNLKPLEVRRGLRAQTCAFWNRFLPKLLSATDTLDEAERQWKAEFHRWSSYMVHWKNQFDHYSKQERCSDL,95,1570
unnamed (protein) MRPPWYPLHTPSLAFPLLFLLLSLLGGGARAEGREDPQLLVRVRGGQLRGIRLKAPGGPVSAFLGIPFAEPPVGSRRFMPPEPKRPWSGVLDATTFQNVCYQYVDTLYPGFEGTEMWNPNRELSEDCLYLNVWTPYPRPASPTPVLIWIYGGGFQSGAASLDVYDGRFLAQVEGAVLVSMNYRVGTFGFLALPGSREAPGNVGLLDQRLALQWVQENIAAFGGDPMSVTLFGESAGAASVGMHILSLPSRSLFHRAVLQSGTPNGPWATVSAGEARRRATLLARLVGCPPGGAGGNDTELIACLRTRPAQDLVDHEWHVLPQESIFRFSFVPVVDGDFLSDTPEALINTGDFQDLQVLVGVVKDEGSYFLVYGVPGFSKDNESLISRAQFLAGVRIGVPQASDLAAEAVVLHYTDWLHPEDPTHLRDAMSAVVGDHNVVCPVAQLAGRLAAQGARVYAYIFEHRASTLTWPLWMGVPHGYEIEFIFGLPLDPSLNYTTEERIFAQRLMKYWTNFARTGDPNDPRDSKSPQWPPYTTAAQQYVSLNLKPLEVRRGLRAQTCAFWNRFLPKLLSATDTLDEAERQWKAEFHRWSSYMVHWKNQFDHYSKQERCSDL,120,1830
